From patent publication US20030092616A1, “STAT6 activation gene” (priority 2001, published 2003)

B1: 50 (nucleic acid, listed as Homo sapiens)
chain: AATTCAACATGGCAGCCATGCGCTGGCGATGGTGGCAGCGGCTGTTACCTTGGAGGTTGCTGCAGGCCCGTGGCTTTCCACAAAATTCTGCACCCAGCCTGGGCCTAAGAGCGAGGACTTATTCCCAGGGCGACTGCTCGTATTCGCGCACGGCGCTGTATGATCTGCTCGGCGTCCCCTCCACAGCCACGCAGGCCCAAATCAAGGCGGCTTACTACCGTCAGTGCTTTCTCTACCACCCGGACCGCAACTCCGGGAGCGCGGAGGCCGCCGAGCGCTTCACGCGCATCTCCCAGGCCTACGTGGTGCTGGGCAGTGCCACCCTCCGTCGCAAGTATGATCGCGGCCTACTCAGCGACGAGGACCTGCGCGGACCTGGCGTCCGGCCCTCCAGGACGCCCGCACCCGACCCCGGCTCGCCGCGTACCCCGCCGCCCACCTCTCGGACCCACGACGGTTCTCGGGCCTCCCCCGGCGCCAACCGCACGATGTTCAACTTTGACGCCTTCTACCAGGCCCACTACGGGGAACAACTGGAGCGGGAACGGCGCCTGAGGGCCCGGCGGGAGGCCCTTCGCAAACGGCAGGAGTATCGGTCCATGAAAGGCCTCCGCTGGGAGGATACCCGAGACACGGCTGCCATTTTCCTCATCTTTTCAATCTTCATCATCATCGGCTTTTATATTTAATCGGAGAGAGAAGGGAAGGGGAGTGTCCCCAGCCAACCCCCCAGAAACGGCCTTTTTTCCTGCCTCTGAACCCTTGGCCGTTGATAGTCTACCTTTGCTGGGATCCGAAGGAACTGTACTCCCCCTGCCCTCCCCGACCCGCCCAGCTTAGCCGATGACCTGCACATCGCTCCACTGTGGTCCAGAAAAGGAGGCCTTTCGATGTCTGAGAAAGAGGCCCCACGCTGTAGAGTCCCGAAAGCCCAGGAGTGAAGGGGGTTCCTGGAGTCTCTAGGGTGCTTCTTCCAGAGTCTGTCTTCTTGCTTCCAGATGTGGTCAACTTCTGGAACACTCGCTGTAGCTTTATTGTTTAGCCCCAAGCAAGATTTATCTCCTCCTGCCCCGCATGTGTATGGTGGGCCTCTGTAACCTTGAAATGTGCAATGTGACCAATTGTTGACTACCAAAAGAAAAGGTCTGGGGTTGT
modifications: CDS (9)..(686)
B2: 241 (nucleic acid, listed as Homo sapiens)
chain: GGGGTGTCCAGTTGGTTGCCGCGGCAGTCTCTCCGAGCAGCGCATTTGTCTTCTAGGCTGCTTGGTTCGTGCCTCCGAGAAAGGGGTCTCCTGCTGCCAGCTAAGTGTGGGAGAACTTGTGCACGTATCTCCCCTCCGAATCCCAACGATGGGTAACGCCAGCTTTGGCTCCAAGGAACAGAAGCTGCTGAAGCGGTTGCGGCTTCTGCCCGCCCTGCTTATCCTCCGCGCCTTCAAGCCCCACAGGAAGATCAGAGATTACCGCGTCGTGGTAGTCGGCACCGCTGGTGTGGGGAAAAGTACGCTGCTGCACAAGTGGGCGAGCGGCAACTTCCGTCATGAGTACCTGCCGACCATTGAAAATACCTACTGCCAGTTGCTGGGCTGCAGCCACGGTGTGCTTTCCCTGCACATCACCGACAGCAAGAGTGGCGACGGCAACCGCGCTCTGCAGCGCCACGTTATAGCCCGGGGCCACGCCTTCGTCCTGGTCTACTCAGTCACCAAGAAGGAAACCCTGGAAGAGCTGAAGGCCTTCTATGAGCTGATCTGCAAGATCAAAGGTAACAACCTGCATAAGTTCCCCATCGTGCTGGTGGGCAATAAAAGTGATGACACCCACCGGGAGGTGGCCCTGAATGATGGTGCCACCTGTGCGATGGAGTGGAATTGCGCCTTCATGGAGATTTCAGCCAAGACCGATGTGAATGTGCAGGAGCTGTTCCACATGCTGCTGAATTACAAGAAAAAGCCCACCACCGGCCTCCAGGAGCCCGAGAAGAAATCCCAGATGCCCAACACCACTGAGAAGCTGCTTGACAAGTGCATAATCATGTGAGCCCTGGGCCTTAAGAGCCAGCTCTTCCTATCCTGTAGCGTGTAGAAAACGTGGACTCATTTCACTATGTTACATGTACATGGTTGATTTTGTGCTGTTGTTTGGACTGTAACATCCATGTTGTCAATACGTATACCTTGTAAGTGGATAACTTTTCTTTTTCCCAGGCCAGAGAATTCAAATTGTTAAAACATTGGCATTTGAAGAGGAGAACAAAATGTAGCATGATGTATTTAAAGTAAGGCCTTTAGTAATGAATGTAATGAGAGAAAATGTTTTGAAAAGAACAAAACATCAAAATGAATAGAAAGAAAAATTGGAAGGCGTCCTTTTGGTAACCCGATTATTGTGTATTACCTTTAAATATTTCACATCCTGTAAGTGCTTAATCATATCTTTTAATTGTGTATTTAAGAAAAGTGTTTTCACAACAAAAGCTTTTGATAAATTGCTGCGTGACATATACTAAATAAAAAAATGAATATGTTGATCATTAGGGGTGTGGGAGCAGAGAAAATTGTGAAAGTGACTCTCACTAAAGATGTTAGTAGTTTCTCATGTCATTTAAAAATGTTTGAGTATTCTGCATAGCAGTTTGTAAAAGTGTAACAGCTTATTGACTTAATAAAGCTTTTCCTGCATGC
modifications: CDS (149)..(835)
B3: 56 (nucleic acid, listed as Homo sapiens)
chain: AGAGCCGCCGCCCAGGAAGGGGATGCGGAAACCCCTGGCTCGGTGGAGCGGAGAGGCAGGCGGGCAGGAGCCGAGGACGGCATGTCCCAGGCCCCGGGAGCACAGCCGAGCCCACCCACCGTGTACCACGAACGGCAGCGCCTGGAGCTGTGTGCTGTCCACGCCCTCAACAACGTTCTGCAGCAGCAGCTCTTTAGCCAGGAGGCTGCCGATGAGATCTGCAAGAGGTTGGCCCCAGACTCCCGGCTGAACCCTCATCGCAGCCTCCTGGGCACCGGCAACTATGATGTCAATGTGATCATGGCCGCTCTGCAGGGGCTGGGCCTGGCCGCCGTGTGGTGGGACAGGAGGAGGCCCCTGTCCCAGCTGGCCCTGCCCCAGGTACTGGGGCTGATCCTGAACCTGCCCTCGCCCGTGTCGCTGGGGCTGCTGTCACTGCCGCTGCGCCGGCGGCACTGGGTGGCCCTGCGCCAGGTGGACGGTGTCTACTACAACCTGGACTCCAAGCTGCGGGCGCCCGAGGCCCTGGGGGATGAGGACGGAGTCAGGGCCTTCCTGGCGGCTGCGCTGGCCCAGGGCCTGTGCGAGGTGCTGCTGGTAGTGACCAAGGAGGTGGAGGAGAAGGGCAGCTGGCTGCGGACAGACTGACCATGGCTGACCATCGGCGCCCACAGCGCAGTCCCTGCGCATCCCCCTCCGGCTGCGCACACTGCATGCCTGGGAAAGGCCAGCACTTCATGGACCCTGGGGAGGCCCCGCCCCCTCCCCACACCCCTGCTCCCCACTGCCGCTGCTGCCTCAATAAATCTGCTGATTTGCTGCC
modifications: CDS (82)..(645)

Test system: STAT6
Experiment: Screening of full-length cDNA clones for promotion of STAT6 activation (luciferase reporter N4×8-luc)
Type: cell-based
Conditions: NIH3T3 cells cotransfected with N4×8-luc reporter and cDNA plasmid; 48 h culture, then mouse IL-4 0.5 ng/ml for 6 h
Description: As a preferable method, NIH3T3 cells are inoculated on 10% FBS (Fetal Bovine Serum)-containing IMDM medium in a 96-well cell culture plate to a final cell density of 1×10^4 cells/well, and cultured for 24 hours at 37° C., in the presence of 5% CO2. Then, the luciferase reporter plasmid N4×8-luc which has a STAT6 response sequence, and the expression vector are cotransfected into the cells in a well using FuGENE 6 (Roche). After 48 hours of culture at 37° C., in the presence of 5% CO2 mouse IL-4 (Immuno Biological Laboratories Co., Ltd.) is added to a final concentration of 0.5 ng/ml. After culturing for further 6 hours, promoting activity for STAT6 activation is then measured by measuring luciferase activity using a long term luciferase assay system, Picagene LT2.0 (Toyo Ink Mfg). For example, luciferase activity can be measured using PerkinElmer's Wallac ARVOTMST 1420 MULTILABEL COUNTER. The method for gene introduction by FuGENE6, and measurement of luciferase activity by Picagene LT2.0 can be performed respectively according to the attached protocols. In a method of gene introduction with a 96-well plate using FuGENE6, the amount of FuGENE6 per 1 well is suitably 0.3 to 0.5 μl, preferably 0.3 μl; the amount of N4×8-luc reporter plasmid is suitably 50 to 100 ng, preferably 100 ng; and the amount of expression vector is suitably 50 to 100 ng, preferably 100 ng. An ability (action) to promote STAT6 activation refers to an ability to increase the reporter activity (luciferase activity) relative to the control experiment (for cells into which the reporter gene and a null vector were introduced). Increase in reporter activity is preferably by a factor of 1.5 or more, more preferably by a factor of 3 or more, and still more preferably by a factor of 6 or more.
NIH3T3 cells (purchased from Dainippon Pharmaceutical) were grown to 1×10^4 cells/well in a 96 well plate for cell culture for 24 hours at 37° C. (in the presence of 5% CO2) using 10% FBS containing IMDM medium. Then, 100 ng of luciferase reporter plasmid N4×8-luc having a STAT6 response sequence and 2 μl of the full-length cDNA prepared in above Example 1.(3) were cotransfected into the cells in a well using FuGENE 6 (purchased from Roche) according to the manufacturer's protocol. The luciferase reporter plasmid N4×8-luc having the STAT6 response sequence was constructed as follows. […] 157, 2058-2065 (1996)], oligonucleotides having the following sequences were synthesized:
The synthesized oligonucleotides were dissolved in sterile water to be 1μg/μl, respectively, mixed in 10 μl lots, and adjusted the volume to 32 μl with sterile water. The solution was heated for 5 min at 90° C., and gradually cooled down to room temperature to prepare a double-stranded oligonucleotide solution. The solution was reacted with T4 polynucleotide kinase (Takara Shuzo) according to the attached manual, then the reaction product was purified in a usual manner. Separately, SV40 promoter region of pGL3-Promoter vector (Promega) was replaced by the HSV thymidine kinase promoter sequence (from −50 to +10) with Hind III site and BglII site to construct a vector tk-luc. The aforesaid double-stranded oligonucleotide fragments were inserted into the XhoI site of this tk-luc vector using T4 DNA ligase (GIBCO/BRL). The obtained clones were sequenced according to a usual method, and clones in which plural oligonucleotide fragments were inserted were selected. […] The four-interlinked DNA fragments were excised from the N4×4-luc with a XhoI and a BglII site and purified to be inserted into a BamHI and a XhoI site of pBluescript II KS+ (Stratagene). The four-interlinked DNA fragments were excised from this plasmid with KpnI and SpeI and inserted into a KpnI and a NheI site of N4×4-luc plasmid to finally obtain N4×8-luc.

Molecule	Activity = (luciferase activity of the gene of each SEQ ID NO:)/(luciferase activity of pME18S-FL3)
B1	18.5
B2	54.3
B3	4.7
